In series [1] the target is Dnmt3b-C (C-terminal catalytic domain of mouse Dnmt3b) (mouse).
The next series addresses Dnmt3b-C (mouse, UniProt O88509 558-859). Briefly: nitrocellulose filter binding.

In the case of “Dnmt3L (from UniProt Q9CWR8 1-421) (natural protein)”, in series [1], the DNA methylation activity of Dnmt3b-C in the presence of Dnmt3L (fold activation) was 6 fold.

B1: Cy5-labeled 30-mer, one CpG site (dsDNA)
DNA 1: GAAGCTGGGACTTCCGGGAGGAGAGTGCAA
DNA 2: TTGCACTCTCCTCCCGGAAGTCCCAGCTTC
Take B1: in the series with Dnmt3b-C, the binding result is reported as “binds”.
